These results are taken from paper PMC8460140, “Identification of BiP as a CB1 Receptor-Interacting Protein That Fine-Tunes Cannabinoid Signaling in the Mouse Brain” (The Journal of Neuroscience, 2021).

In the experiment the target is T1, His6-tagged BiP-IR (amino acids 497-654), recombinant (UniProt P11021 497-654).
T1 construct: BiP (GRP78, Hspa5), amino acids 497-654; pBH4 vector; also called unlabeled BiP-IR
T1 sequence (looked up): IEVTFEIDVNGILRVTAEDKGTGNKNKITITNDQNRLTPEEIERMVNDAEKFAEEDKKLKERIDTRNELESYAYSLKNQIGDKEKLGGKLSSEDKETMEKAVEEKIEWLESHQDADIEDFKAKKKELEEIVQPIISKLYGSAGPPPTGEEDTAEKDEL
The experiment can be described thus: fluorescence polarisation; saturation binding: constant 100 nM 5-IAF-CB1R-CTD, increasing amounts of unlabeled BiP or BiP-IR. The conditions noted are these: both partners purified.

B1: His6-tagged CB1R-CTD (amino acids 400-472), labeled with 5-IAF (domain or fragment, UniProt P21554 400-472, looked up)
chain: RSKDLRHAFRSMFPSCEGTAQPLDNSMGDSDCLHKHANNAASVHRAAESCIKSTVKIAKVTMSVSTDTSAEAL
modifications: labeled with 5-(iodoacetamido)fluorescein (5-IAF); labeled residue not stated
notes: pBH4 vector; also called 5-IAF-CB1R-CTD; 5-IAF-labeled CB1R-CTD
For B1, the binding result is recorded as “binds”.
